Assay: yeast display, Sf9 membrane polyspecificity reagent, FACS + sequencing; frameworks hold sequencing errors
Outline: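 Synthetic nanobody libraries on Saccharomyces cerevisiae BJ5465 were galactose-induced for 36–48 hours, stained 1 hour at 4 °C with 10% biotinylated, detergent-solubilized Sf9 membrane reagent and enriched on streptavidin microbeads. FACS then separated cells into low and high (top ~1%) gates by anti-HA (expression) and streptavidin (reagent binding) fluorescence. Genes were colony-PCR amplified, MiSeq 2 × 250 sequenced and CDR-length filtered. A clone's polyreactivity label is that of its gate of origin.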

| Sequence | polyreactivity (PSR sort gate) |
| --- | --- |
| QVQLVESRGGLVQAGGSLRLSCAASGSNFYAYAMGWYRQAPGKERELVAAISWSTSSTYADSVKGRFTISRDNAKNTVYLQMNSLKPEDTAVYYCAASPYKGTGAEFDYWGQGTQVTVSS | low polyreactivity |
| QVQLVESRGGLVQAGGSLRLSCAASGSTFNYYTMGWNRQAPGKERELVATITSGGTTYYADSVKGRFTISRDNAKNTVYLQMNSLKPEDTAVYYCAVQLRRHVDMDYWGQGTQVTVSS | high polyreactivity |
| QVQLVESRGGLVQAGGSLRLSCAASGSTFTYNAMGWYRQAPGKERELDAAISSDGRTYYADSVKGRFTISRDNAKNTVYLQMNSLQPEDTALYYCAAMYWFYVYPFTEYDYWGQGTQVTVSS | low polyreactivity |
| QVQLVESRGGLVQAGGSLRLSCAASGSTFTYYAMGWYRQAPGKERELVAAITFRGDSTYYADSVKVRFTISRDNAKNTVYFQMNSLKPEDTAVYYWGQGTQVTVSS | low polyreactivity |
| QVQLVESRGGLVQAGGSLRLSCAASGSTLSQNAMGWYRQAPGKEREFDADISGSGDSTYYADSVKGRFTISRDNAKNTFYLQMNSLKPEDTAVYYCATPSPHVGLKWEYDYWGQGTQVTVSS | low polyreactivity |
| QVQLVESRGGLVQAGGSLRLSCAASGSTLYQYAMGWYRQAPGKERELVAAITKSGGRTYYADSVKGRFTISRDNAKNTVYLHMNSLKPEDTAVYYCNVVRGSYSSGGDYWGQGTQVTVSS | high polyreactivity |
| QVQLVESRGGLVQAGGSLRLSCAASGYIFRSNAMGWYRQAPGKERELVAAITRSGGSTYYADSVKGRFTISRDNAKITVFLQMNSLKPEDTAVYYCAVLPRGSNGMDYWGQGTQVTVSS | low polyreactivity |
| QVQLVESRGGLVQAGGSLRLSCAASGYTFDWYTMGWYRQAPGKERELVAAISASGVRTYYADSVKGRFTISRDNAKNTVYLQMNSLKPEDTAVYYCYRVYSTSRITQYEFDYWGLGTQVTVSS | low polyreactivity |
| QVQLVESRGGLVQAGGSLRLSCAASVRTFQKNTMGWYRQAPGKERELVAAIDYSATSTYYADSVKGRFTISRDNAKNTVYLQMNSLKPEDTAVYYCAARWSYPRWEFDYWGQGTQVTVSS | high polyreactivity |
| QVQLVESRGGLVQAGGSLRLSCSASGFIRTYAMGWYRQAPAKERELVAAITSSGGRTNYADSVKGRFTISRDNAKNTVYLQMNSLKPEDTAVYYCAAGLGRYLRYNYWGQGTQVTVSS | high polyreactivity |
| QVQLVESRGGLVQAGGSLRLSCSASGITFNHYAMGWYRQAPGKERQLVAAITGSGGSTYYADSVKGRFTISRDNGKNTVYLQMNSLKPEDTAVYYCKTSPKLTYAVLYDYWGQGTQVTVSS | high polyreactivity |
| QVQLVESRGGLVQAGGSLRLSSAASGFIFDDNAMGWYRQAPGKERQLVAAITSGGGSTYYADSVKGRFTISRDNAKNTVYLQMNSLKPDDTAVYSCNAKLFIRWFTYDYWGQGTQVTVSS | low polyreactivity |
| QVQLVESRGGLVQAGGSLRLTCAAYGRIFLVYDMGWYRHAPGKERELVAAISWSTGSTYYADSVKGRFTISRDNAKNTFYFQINSLITEDTAVYYCAAEPELDDYEHDYWGQGTQLTVSS | low polyreactivity |
| QVQLVESRGGLVQVGGSLRLSCAASGRTFGRYAMGWYRQAPGNERELVAAINSVARTNYADSVKGRFTISRDNAKNTVYLQMNSLKPEDSAVYYCAARRRGSVGVGYAYPYNYWGQGTQVTVSS | high polyreactivity |
| QVQLVESRGGVVQAGGSLRLSSAASGTFVYAMGWYRQAPGKERELVAAISYSGGSTYYADSVKGRFTISRDNAKNTVYLQMNSLKPEDTAVYYCAARTTLSYGYDYWGQGTQVTVSS | high polyreactivity |
| QVQLVESRRGLVQAGASLPLRCAASVSTLDTYAMGLYRQAPGKERELVAAISRSGNSTYYADSVKGRFTISRDNAKNTVYLQMNSLKPEDTAVYYCAAYGPRVNGEIGREYYYWGQGTQVTVSS | low polyreactivity |
| QVQLVESRRGLVQAGGSIRLSCAASGSTFPYNAMGWYRQAPGKDRELVAAITSAGGTNYADSVKGRFTISRDNAKNSVYLQMNSLKPEDSAVYSCAAVGSGYYDGYFYWGQGTQVTVSS | low polyreactivity |
| QVQLVESRVGLVQAGGSLRLSCAASGFTFGHYVMGWYRQAPGKERELVAAITLSGGGTYYADSVKGRFTISRDNAKNTVYLQMNSLKPEDTAVYYCAAVGGEHAKKTYSRYKVDYWGQGTQVTVSS | low polyreactivity |
| QVQLVESSGGLVQAGGSLRLSCAASGSTFALYAMGRYSQAPGKERELVAAITASGGSTYYADSVKGRLTISRDIAKKTVDLQMNSLKAEDTAVYYCATGRTKRYLYPPGYWGQGTQVTVSS | high polyreactivity |
| QVQLVESVGCLVQAGGSLRLSCPASGFNFPGYALGWYRQAPGKERELVAAITGSGGRTYYADSVKGRFTISRDNAKNTVYLQMNSLKQEDTAVYYCLARSYYNWNDYWGQGTQVTVSS | high polyreactivity |
| QVQLVESVGGIVQAGGSLRLSCAASGSIINWYAMGWYRQAPGKERELVAAISSSGSTNYADSVKGRFTISRDNAKNTVYLQMNSLKPEDTAVYYCNADEYYLNNYNYGYWGQGTQVTVSS | low polyreactivity |
| QVQLVESVGGLDQAGGSLRLSCAASGFTFQYYAMGWYRQAPGKERELVAAITSNGGGTYYADSVKGRFTISRDNAKNTVYLQMNSLKPEDTAVYYCAADRWYSMDYWGQGTQVTVSS | high polyreactivity |

| Sequence | polyreactivity (PSR sort gate) |
| --- | --- |
| QVQLVESVGGLGQAGGSLRLSCAASGSTFAGYTMGWYRQAPGKERELVAANTSRGGRTYYADSVKGRFTISRDNAKNTVYIQMNSLKPEDTAVYYCAAVSRYYAELMYYWGQGTQVTVSS | high polyreactivity |
| QVQLVESVGGLLQAGGSLRLSCAASGFTFSGNGRGWYRQAPGKERELVAAITSTGNTYYADSVKGRFTISRDNAKKTVYLQMNRLKPEDTAVYYCARRGDLLYDYWGQGTQVTVSS | low polyreactivity |
| QVQLVESVGGLLQAGGSLRLSCAASGSIFRGYAMGWYRQAPGKERDLVAAISWSGGSTYYADSVKGRFTISRDNAKNTVYLQMNRLKPEDTAVYYCAADRVVFGYWYYYWGQGTQVTVSS | high polyreactivity |
| QVQLVESVGGLLQAGGSLRLSCDASGSIFADYAMGWYRQAPGKERELVAVITSSGGSTNYADSVKGRFTISRDNAKNTVYLQMNSLKPEDTAVYYCNRRPYPSYDYWGQGTQVTVSS | low polyreactivity |
| QVQLVESVGGLVHAGGSLRLSCAASGRTFGYNAMGWYRQATGKERELVAAISFRGGTTYYADSVKGRFTISRDNAKITVYLQMNCLIPEDPSVYYCAARYYYRYTGGRLDYWGQGTQVTVSS | high polyreactivity |
| QVQLVESVGGLVHAGGSLRLSCAASGSTFRYNAMGWYRQAPGKDRELVAAISWSGGSTYYADSVKGRFTISRDNAKNTVYFQMNSLIPEDTAVYYCAKVYFWGALSPDKYDEDYWGQGTQVTVSS | low polyreactivity |
| QVQLVESVGGLVKAGGSLRLSCAASGRTFYNAMGWYRQAPGKERELVAAISSDGSTYYADSVKGRFTISRDNAKNTVYLQMNSLKPEDTAVYYCARDLGSWYYQVRFGYWGQGTQVTVSS | high polyreactivity |
| QVQLVESVGGLVLAGGSLRLSCAASGFTFPRYVMGSYRPAPGKAREFVAAITFSGGSTYYADSVKGRFTIARDNAKNTVYLQMNSLKPEDTAVYYCAAGASLWRLGLKRGYWGQGTQVTVSS | low polyreactivity |
| QVQLVESVGGLVQAGASLPLSCAASGRIFPYYAMGWYRQAPGKESEFVAAITKRGGSTSYADSVKGRFTISRDNAKNTVYLQMNSLKPEDTAVYYCAARRGSGFFTYYGGAFWGQGTLVTVSS | low polyreactivity |
| QVQLVESVGGLVQAGASLRLSCAASGLNIYTYAMGWYRQAPGKERELVAAIRWRGGRTYYADSVNGRFTISRDNAKNTVYLQMNSLKPEDTAVYYCAADYSNLYKSDYWGQGTQVTLSS | low polyreactivity |
| QVQLVESVGGLVQAGCTLPLSCAASGLIFYLYAMGWYRQATGKERELVARISRGGSTNYADSVKGRFTISRDNAKNTVYLQMNSLNPDDTAVYYCAADWFFSLGEMYYWGQGTQVTVSS | low polyreactivity |
| QVQLVESVGGLVQAGGRLRLSCAASGSTFPRYTRGWYRQAPGKERELVAAISSRGGSTIYADSVKGRFTNSRDNAMNTVYLEMNSLKPEDSAVYYCAARRASRDGYWGQGTQVTVSS | high polyreactivity |
| QVQLVESVGGLVQAGGSLPLSCAASGRTFTSYAMGWYRQAPGKERELVAAINYSGGSTYYADSVKGRFTISRDNAKNTVYLQMNSLKPEETAVYYCAKSSHAREYYYWGQGTQVTVSS | low polyreactivity |
| QVQLVESVGGLVQAGGSLRIICAASGSIFTDNAMGWYRQAPGTERELVAAISRSGGNTYYADSVKGRFTISRDNAKNTVYLQMNSLKPEDTAVYYCAARQKGTGNYWGQGTQVTVSS | high polyreactivity |
| QVQLVESVGGLVQAGGSLRLICAASGSTIFYNAMGWYRQAPGKERELVAAISWSGGRTYYADSVKGRFTISRDNAKNTVYLQMYRLKPEDNAVYYCNTVVSKYYKVGFGSWGQGTQVTVSS | high polyreactivity |
| QVQLVESVGGLVQAGGSLRLSCAASGFIFRKYVMGLYIQAPGKERELVAAITRSCTSTYYADSVKGRFTISRDNAKNTVYLQMNSLKPEDTAVYYCNVGSDGWYYWGQGTQVTVSS | low polyreactivity |
| QVQLVESVGGLVQAGGSLRLSCAASGFIFWDNAMGWYRQAPGKERELVAAISKSGTRTYYADSVKGRFTISRDNAKNTVYLQMNSLKPEDTAVYSCAAEGSGYEYYYWGQGTQVTVSS | high polyreactivity |
| QVQLVESVGGLVQAGGSLRLSCAASGFIQGAYAMGWYRPAPGKERELVAAITSSGGSTYYADSVKGRFTISRDNAKNTVYLQMNSLKPEDTAVYYCNTVYVYGPEYDYWGQGTQVTVSS | high polyreactivity |
| QVQLVESVGGLVQAGGSLRLSCAASGFIVSTYAMGWYRQAPGKERELVAAITNSGGSTYYADSVKGRFTISRDNAKNTVYLQMNSLKPEDTAVYYCARRRSYRDNYWGQGTQVTVSS | high polyreactivity |
| QVQLVESVGGLVQAGGSLRLSCAASGFTFGRYAMGWYRQAPGKERELVAAISFSGGRTYYADSVKGRFTISRDNAKNTVYLQMNSLKPEDTAVYYCAARRRQEHVGRSSYARYDYWGQGTQVTVSS | high polyreactivity |
| QVQLVESVGGLVQAGGSLRLSCAASGFTFRHYVMGWYRQQPGKERELVAAIDVRGGSTYYADSVKGRFTISRDNAKNTVYLQMNSLKPEDTAVYYCAKRLIPRLPNLQKMDYWGQGTQVTVSS | low polyreactivity |

Reference: the nanobody polyreactivity screen of Harvey et al. (2022)
